In the supplement of paper PMC9112550, “Optimization of the antimicrobial peptide Bac7 by deep mutational scanning” (BMC Biology, 2022):

Each sequence was assayed on Escherichia coli TOP10 (assay: shrunken log2 fold change of peptide-encoding DNA abundance (4.5 h post-induction vs induction); higher = less antimicrobial activity (less host growth inhibition)). Details: time post-induction: 4.5 h; library: site-saturation at positions 5, 18, 19, 20.
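Note: peptides expressed intracellularly from a pBAD plasmid library in pooled LB shake-flask culture, induced with 0.3% L-arabinose, DNA abundance read by NGS, three biological replicates, DESeq2 with apeglm shrinkage.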

Sequence | shrunken log2 fold change
RRIRDRPPRLPRPRPRPLWMPRP | 0.0442
RRIRHRPPRLPRPRPRPDWLPRP | 0.0441
RRIRWRPPRLPRPRPRPHDLPRP | -0.0525
RRIRVRPPRLPRPRPRPQDGPRP | -0.00098
RRIRHRPPRLPRPRPRPDHEPRP | -0.018
RRIRSRPPRLPRPRPRPIAWPRP | -0.0861
RRIRPRPPRLPRPRPRPGANPRP | 0.364
RRIRARPPRLPRPRPRPLAWPRP | 0.721
RRIRVRPPRLPRPRPRPRWIPRP | -0.0863
RRIRRRPPRLPRPRPRPCIDPRP | -0.211
RRIRFRPPRLPRPRPRPSGSPRP | -0.192
RRIRCRPPRLPRPRPRPHETPRP | -0.035
RRIRYRPPRLPRPRPRPDSWPRP | -0.602
RRIRFRPPRLPRPRPRPAMLPRP | 0.0665
RRIRDRPPRLPRPRPRPWMPPRP | -0.11
RRIRYRPPRLPRPRPRPVQLPRP | -0.779
RRIRKRPPRLPRPRPRPKFHPRP | 0.161
RRIRIRPPRLPRPRPRPNMMPRP | -0.298
RRIRVRPPRLPRPRPRPWNYPRP | -0.0949
RRIRVRPPRLPRPRPRPHLGPRP | -0.132
RRIRMRPPRLPRPRPRPINRPRP | -0.0561
RRIRQRPPRLPRPRPRPRWYPRP | -0.172
RRIRNRPPRLPRPRPRPKMWPRP | 0.279
RRIRCRPPRLPRPRPRPIYPPRP | -0.386
RRIRNRPPRLPRPRPRPVLMPRP | -0.14

Sequence | shrunken log2 fold change
RRIRHRPPRLPRPRPRPAHGPRP | 0.0855
RRIRMRPPRLPRPRPRPGKWPRP | 0.204
RRIRPRPPRLPRPRPRPYSPPRP | -1.23
RRIRYRPPRLPRPRPRPNQGPRP | -0.00893
RRIRARPPRLPRPRPRPDTFPRP | 0.158
RRIRCRPPRLPRPRPRPVTGPRP | -0.0982
RRIRARPPRLPRPRPRPWPIPRP | 0.179
RRIRLRPPRLPRPRPRPQFHPRP | -0.414
RRIRSRPPRLPRPRPRPAQWPRP | 0.595
RRIRKRPPRLPRPRPRPRWCPRP | 0.251
RRIRCRPPRLPRPRPRPHHTPRP | -1.04
RRIRHRPPRLPRPRPRPGMRPRP | 0.163
RRIRVRPPRLPRPRPRPGKDPRP | 0.114
RRIRWRPPRLPRPRPRPEMNPRP | 0.753
RRIRNRPPRLPRPRPRPRCDPRP | -0.203
RRIRPRPPRLPRPRPRPIQMPRP | -0.166
RRIRDRPPRLPRPRPRPDPYPRP | 0.00859
RRIRRRPPRLPRPRPRPLCDPRP | 0.422
RRIRFRPPRLPRPRPRPYCGPRP | -0.306
RRIRYRPPRLPRPRPRPMVPPRP | -0.909
RRIRKRPPRLPRPRPRPSWYPRP | -0.519
RRIRCRPPRLPRPRPRPNMAPRP | -0.614
RRIRVRPPRLPRPRPRPFVGPRP | -0.0757
RRIRRRPPRLPRPRPRPIVNPRP | -0.205
RRIRSRPPRLPRPRPRPNLWPRP | -0.075

Sequence | shrunken log2 fold change
RRIRYRPPRLPRPRPRPIWTPRP | 0.066
RRIRCRPPRLPRPRPRPRHVPRP | -0.0723
RRIRKRPPRLPRPRPRPMTLPRP | -0.0281
RRIRCRPPRLPRPRPRPMTHPRP | -0.377
RRIRLRPPRLPRPRPRPVICPRP | -0.16
RRIRERPPRLPRPRPRPQQCPRP | -0.0909
RRIRSRPPRLPRPRPRPTSFPRP | -0.189
RRIRRRPPRLPRPRPRPSDDPRP | 0.209
RRIRCRPPRLPRPRPRPDQRPRP | -0.254
RRIRFRPPRLPRPRPRPEMAPRP | 0.635
RRIRCRPPRLPRPRPRPVDNPRP | -0.00721
RRIRNRPPRLPRPRPRPNDRPRP | -0.218
RRIRYRPPRLPRPRPRPKLPPRP | 0.108
RRIRDRPPRLPRPRPRPRFRPRP | 0.951
RRIRNRPPRLPRPRPRPDRKPRP | -0.00776
RRIRSRPPRLPRPRPRPDNEPRP | -0.0519
RRIRTRPPRLPRPRPRPMIVPRP | -0.158
RRIRFRPPRLPRPRPRPGTGPRP | -0.124
RRIRPRPPRLPRPRPRPPVNPRP | 0.15
RRIRWRPPRLPRPRPRPNNPPRP | -0.631
RRIRKRPPRLPRPRPRPWVMPRP | -0.251
RRIRDRPPRLPRPRPRPWKEPRP | -0.0075
RRIRERPPRLPRPRPRPHHEPRP | -0.191
RRIRHRPPRLPRPRPRPWQIPRP | -0.453
RRIRQRPPRLPRPRPRPRSKPRP | 0.185

Sequence | shrunken log2 fold change
RRIRSRPPRLPRPRPRPFSDPRP | -0.126
RRIRIRPPRLPRPRPRPMYDPRP | -0.726
RRIRMRPPRLPRPRPRPWDGPRP | 0.0785
RRIRTRPPRLPRPRPRPACFPRP | 0.252
RRIRGRPPRLPRPRPRPNDTPRP | 0.188
RRIRNRPPRLPRPRPRPECCPRP | 0.517
RRIRLRPPRLPRPRPRPKKCPRP | -0.198
RRIRRRPPRLPRPRPRPEHNPRP | 0.183
RRIRIRPPRLPRPRPRPFPLPRP | -0.547
RRIRTRPPRLPRPRPRPANFPRP | -0.234
RRIRCRPPRLPRPRPRPNIWPRP | -0.178
RRIRQRPPRLPRPRPRPRPQPRP | 0.262
RRIRHRPPRLPRPRPRPRSFPRP | -0.0488
RRIRWRPPRLPRPRPRPLQIPRP | -0.125
RRIRSRPPRLPRPRPRPAQNPRP | 0.241
RRIRNRPPRLPRPRPRPRHWPRP | 0.133
RRIRQRPPRLPRPRPRPFASPRP | -0.35
RRIRTRPPRLPRPRPRPVPIPRP | -0.0974
RRIRLRPPRLPRPRPRPIHMPRP | -0.0933
RRIRLRPPRLPRPRPRPIVLPRP | -0.345
RRIRHRPPRLPRPRPRPQDCPRP | -0.01
RRIRHRPPRLPRPRPRPIFCPRP | -0.184
RRIRKRPPRLPRPRPRPMELPRP | 0.159
RRIRQRPPRLPRPRPRPLPIPRP | 0.231
RRIRERPPRLPRPRPRPNMQPRP | -0.664

Sequence | shrunken log2 fold change
RRIRVRPPRLPRPRPRPWNVPRP | -0.0441
RRIRMRPPRLPRPRPRPHKMPRP | 0.193
RRIRQRPPRLPRPRPRPQVFPRP | 0.131
RRIRPRPPRLPRPRPRPIQKPRP | 0.115
RRIRVRPPRLPRPRPRPCTPPRP | -0.13
RRIRDRPPRLPRPRPRPFIFPRP | -0.0526
RRIRWRPPRLPRPRPRPNDTPRP | -0.268
RRIRYRPPRLPRPRPRPTMVPRP | -0.269
RRIRERPPRLPRPRPRPNIIPRP | -0.338
RRIRQRPPRLPRPRPRPHDYPRP | -0.00281
RRIRQRPPRLPRPRPRPRKDPRP | -0.16
RRIRIRPPRLPRPRPRPIHTPRP | -0.907
RRIRTRPPRLPRPRPRPLFNPRP | -0.692
RRIRARPPRLPRPRPRPWIEPRP | -0.105
RRIRFRPPRLPRPRPRPKNKPRP | -0.384
RRIRTRPPRLPRPRPRPFATPRP | 0.101
RRIRGRPPRLPRPRPRPMHNPRP | 0.383
RRIRDRPPRLPRPRPRPLLVPRP | 0.134
RRIRWRPPRLPRPRPRPLFWPRP | 0.373
RRIRLRPPRLPRPRPRPCGHPRP | -0.0228
RRIRLRPPRLPRPRPRPRTFPRP | -0.0808
RRIRKRPPRLPRPRPRPNVTPRP | 0.138
RRIRSRPPRLPRPRPRPVYQPRP | -1.16
RRIRERPPRLPRPRPRPWCNPRP | -0.112
RRIRDRPPRLPRPRPRPNKCPRP | -0.104

Sequence | shrunken log2 fold change
RRIRERPPRLPRPRPRPPTTPRP | 0.322
RRIRPRPPRLPRPRPRPHRTPRP | -0.0599
RRIRNRPPRLPRPRPRPATGPRP | -0.04
RRIRRRPPRLPRPRPRPQKVPRP | 0.234
RRIRERPPRLPRPRPRPLWHPRP | -0.0827
RRIRARPPRLPRPRPRPTCKPRP | 0.0463
RRIRYRPPRLPRPRPRPTCYPRP | -0.582
RRIRYRPPRLPRPRPRPSTFPRP | -0.282
RRIRRRPPRLPRPRPRPPARPRP | 0.762
RRIRYRPPRLPRPRPRPNDPPRP | -0.549
RRIRLRPPRLPRPRPRPVLLPRP | 0.0821
RRIRTRPPRLPRPRPRPCIYPRP | -0.264
RRIRHRPPRLPRPRPRPVCRPRP | -0.3
RRIRQRPPRLPRPRPRPNELPRP | -0.24
RRIRQRPPRLPRPRPRPSMLPRP | -0.522
RRIRTRPPRLPRPRPRPDKMPRP | -0.392
RRIRLRPPRLPRPRPRPYRWPRP | -0.0173
RRIRERPPRLPRPRPRPKLDPRP | -0.052
RRIRSRPPRLPRPRPRPWNGPRP | -0.0136
RRIRVRPPRLPRPRPRPKMCPRP | -0.00991
RRIRNRPPRLPRPRPRPCQQPRP | -0.0105
RRIRSRPPRLPRPRPRPMEWPRP | 0.199
RRIRQRPPRLPRPRPRPAELPRP | -0.00135
RRIRFRPPRLPRPRPRPNHLPRP | -1.06
RRIRHRPPRLPRPRPRPEQRPRP | 0.229
